Experimental data taken from US20180355059A1.

Target: recombinant human PCSK9^D374Y protein (human), Q8NBP7
Test: cell-based or functional assay

LDL (%), LDL uptake by HepG2 cells; antibody 0.67 nM: 20%
LDL (%), LDL uptake by HepG2 cells; antibody 6.67 nM: 43.8%
LDL (%), LDL uptake by HepG2 cells; antibody 66.70 nM: 86.4%
B1: 103C11E8, chimeric anti-PCSK9 antibody from hybridoma (antibody, V domains shown)
VH: QVQLQESGPGLVKPSGTLSLTCAVSGGSISSSNWWSWVRQPPGKGLEWIGEIYHSGSTNYNPSLKSRVTISVDKSKNQFSLKLSSVTAADTAVYYCARGIAVAGTDVMDAWGQGASVTVSS
VL: EIVLTQSPATLSLSPGERATLSCRASQSVSSYLVWYQQKSGQAPRLLIYGTSNRATGIPARFSGSGSGTDFTLTISSLEPEDFALYYCQQRGNWMYTFGQGTKLEIK
modifications: here or on the partner: biotinylated in the ELISA assays
